Measured values reported in patent US5683867, “Systematic evolution of ligands by exponential enrichment: blended SELEX” (NeXstar Pharmaceuticals, Inc.).

Target: neutrophil elastase (HNE) (Homo sapiens, UniProt P08246 P08246:30-267)
Test: inhibition; blended ligand (end not specified for Ki); chromogenic substrate, 10 nM elastase, 2 mM MgCl2, 150 mM NaCl, 25 C; >50% inhibition at 70 nM for 3' conjugate
Description: The assay for elastase inhibition is based on the use of a chromogenic tetrapeptide substrate. […] The rate of p-nitroanilide generation in the absence of inhibitor was used as the control.

Sequence of neutrophil elastase (HNE) (P08246 30-267, one chain of several): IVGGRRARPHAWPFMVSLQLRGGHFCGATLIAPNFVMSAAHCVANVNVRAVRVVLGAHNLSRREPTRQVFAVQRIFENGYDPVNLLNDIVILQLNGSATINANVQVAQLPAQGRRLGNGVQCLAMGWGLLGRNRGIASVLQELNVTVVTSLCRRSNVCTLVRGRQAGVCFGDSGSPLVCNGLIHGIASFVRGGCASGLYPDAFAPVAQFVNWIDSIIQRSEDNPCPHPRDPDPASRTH

B1: DNA-17 3'-end peptide conjugate (ssDNA)
DNA: TAGCGATACTGCGTGGGTTGGGGCGGGTAGGGCCAGCAGTCTCGTGCGGTACTTGAGCA
modifications: 3' four 18-atom ethylene glycol spacers and thiol coupled to N-methoxysuccinyl-Ala-Ala-Pro-Val-chloromethyl ketone
B1 gave a Ki of 30 nM.
